Data from US7063946B2, “Methods, reagents, kits and apparatus for protein function analysis” (Meso Scale Technologies, LLC., priority 2001, dated 2006).

Key:
[1] = system: autophosphorylation (phosphotyrosine); test: In vitro kinase library screen: autophosphorylation; assay type: biochemical
Procedure: Proteins were produced from DNA plasmids of Mock Luciferase, Promega, tyrosine kinase clone Spleen Tyrosine kinase (SYK, IMAGE ID# 3870426) and Eph receptor-A7 (EphA7, IMAGE ID# 3991628) (Incyte Genomics, CA) and immobilized on streptavidin or avidin coated NPT-IPR plates as described in the Example 7. To promote autophosphorylation in these immobilized and purified proteins, Mn++ ions were added in a 50 μl reaction containing 5 mM MgCl2, 5 mM MnCl2, 100 μM ATP, 25 mM Tris-HCl buffer pH 7.4, 0.05 mM Na3VO4, 0.004% TritonX-100, 2 mM DTT and EDTA-free protease inhibitor (Roche Molecular Biochemicals). This mixture was incubated with shaking at room temperature overnight to allow autophosphorylation. Following this incubation, wells were washed 2 times with TT-buffer and 2 times with water. Following this step, 50 ng Sulfo-TAG labeled anti-phosphotyrosine in buffer containing 25 mM Tris-HCl buffer pH 7.4, 5 mM MgCl2, 0.05 mM Na3VO4, 0.004% TritonX-100, 2 mM DTT and 0.05% IgG in a final volume of 50 μl was added followed by incubation at room temperature for 45 min. The unbound reagents were removed by one time washing with water, and the TAG label was detected in presence of 150 μl IPR assay buffer (0.4 mM Gly—Gly buffer, pH 7.8, 1 mM EDTA, 0.1 M TPA). The ECL signals were measured using an imaging plate reader.
(§1) Proteins were produced in an in vitro transcription and translation reaction as described in the Materials and Methods. […] The reaction was stopped by mixing with BB2 buffer. Biotinylated proteins from 50 μl of the mixture (representing 0.5 μl to 5 μl of TnT reaction) were immobilized onto streptavidin or avidin coated NPT-IPR plates by shaking at room temperature for 45 min. The activity of the immobilized protein towards pEY or autophosphorylation was further assayed by the methods described in examples 7 and 8.

pEY = test: In vitro kinase library screen: activity towards pEY; assay type: biochemical; conditions: 5 ul of expressed protein
Procedure: Proteins were produced in an in vitro transcription and translation reaction. […] The unbound components of the reaction containing endogenous kinases were removed by three washes with TT-buffer (25 mM Tris-HCl buffer pH 7.4 and 0.004% Triton), two five minutes washings with high-salt wash buffer (25 mM Tris-HCl buffer pH 7.4, 0.004% Triton, 1M NaCl and 5 mM DTT) and 3 more washes with TT-buffer. To these immobilized and purified proteins a tyrosine kinase substrate, 5 nM pEY (poly Glu-Tyr, Sigma, MO), was added in a 50 μl reaction solution containing 5 mM MgCl2, 5 mM MnCl2, 100 μM ATP, 25 mM Tris-HCl buffer pH 7.4, 0.05 mM Na3VO4, 0.004% TritonX-100, 2 mM DTT and EDTA-free protease inhibitor (Roche Molecular Biochemicals). This mixture was incubated with shaking at room temperature overnight to allow phosphorylation of the pEY substrate by the immobilized kinases. Following this incubation, 45 μl of this mixture was transferred to a streptavidin or avidin-coated NPT IPR plate coated with biotinylated anti-phosphotyrosine antibody (PY20, Zymed labs, CA) followed by incubation for 30 minutes at room temperature to allow the binding of the phosphorylated pEY substrate to the PY20 coated NPT plate. Following this binding step, 50 ng Sulfo-TAG labeled anti-phosphotyrosine in buffer containing 25 mM Tris-HCl buffer pH 7.4, 5 mM MgCl2, 0.05 mM Na3VO4, 0.004% TritonX-100, 2 mM DTT and 0.05% IgG was added followed by incubation at room temperature for 30 mm. The unbound reagents were removed by one time washing with water, and the TAG label was detected in presence of 150 μl IPR assay buffer (0.4 mM Gly-Gly buffer, pH 7.8, 1 mM EDTA, 0.1 M TPA). The ECL signals were measured using an imaging plate reader.
as §1

B1: 4013934: IMAGE clone protein: Ephb4, Eph receptor B4 (protein, UniProt P54761 16-987, looked up)
Ephrin type-B receptor 4: LEETLLNTKLETADLKWVTYPQAEGQWEELSGLDEEQHSVRTYEVCDMKRPGGQAHWLRTGWVPRRGAVHVYATIRFTMMECLSLPRASRSCKETFTVFYYESEADTATAHTPAWMENPYIKVDTVAAEHLTRKRPGAEATGKVNIKTLRLGPLSKAGFYLAFQDQGACMALLSLHLFYKKCSWLITNLTYFPETVPRELVVPVAGSCVANAVPTANPSPSLYCREDGQWAEQQVTGCSCAPGYEAAESNKVCRACGQGTFKPQIGDESCLPCPANSHSNNIGSPVCLCRIGYYRARSDPRSSPCTTPPSAPRSVVHHLNGSTLRLEWSAPLESGGREDLTYAVRCRECRPGGSCLPCGGDMTFDPGPRDLVEPWVAIRGLRPDVTYTFEVAALNGVSTLATGPPPFEPVNVTTDREVPPAVSDIRVTRSSPSSLILSWAIPRAPSGAVLDYEVKYHEKGAEGPSSVRFLKTSENRAELRGLKRGASYLVQVRARSEAGYGPFGQEHHSQTQLDESESWREQLALIAGTAVVGVVLVLVVVIIAVLCLRKQSNGREVEYSDKHGQYLIGHGTKVYIDPFTYEDPNEAVREFAKEIDVSYVKIEEVIGAGEFGEVCRGRLKAPGKKESCVAIKTLKGGYTERQRREFLSEASIMGQFEHPNIIRLEGVVTNSVPVMILTEFMENGALDSFLRLNDGQFTVIQLVGMLRGIASGMRYLAEMSYVHRDLAARNILVNSNLVCKVSDFGLSRFLEENSSDPTYTSSLGGKIPIRWTAPEAIAFRKFTSASDAWSYGIVMWEVMSFGERPYWDMSNQDVINAIEQDYRLPPPPDCPTSLHQLMLDCWQKDRNARPRFPQVVSALDKMIRNPASLKIVARENGGASHPLLDQRQPHYSAFGSVGEWLRAIKMGRYEESFAAAGFGSFEVVSQISAEDLLRIGVTLAGHQKKILASVQHMKSQAKPGAPGGTGGPAQQF
ECL signal [1]: 28,275
HTS signal (pEY): 7,357

B2: 4190326: IMAGE clone protein: Lyn, Yamaguchi sarcoma viral (vyes1) oncogene homolog (protein, UniProt P25911 2-512, looked up)
Tyrosine-protein kinase Lyn: GCIKSKRKDNLNDDEVDSKTQPVRNTDRTIYVRDPTSNKQQRPVPEFHLLPGQRFQTKDPEEQGDIVVALYPYDGIHPDDLSFKKGEKMKVLEEHGEWWKAKSLSSKREGFIPSNYVAKVNTLETEEWFFKDITRKDAERQLLAPGNSAGAFLIRESETLKGSFSLSVRDYDPMHGDVIKHYKIRSLDNGGYYISPRITFPCISDMIKHYQKQSDGLCRRLEKACISPKPQKPWDKDAWEIPRESIKLVKKLGAGQFGEVWMGYYNNSTKVAVKTLKPGTMSVQAFLEEANLMKTLQHDKLVRLYAVVTKEEPIYIITEFMAKGSLLDFLKSDEGGKVLLPKLIDFSAQIAEGMAYIERKNYIHRDLRAANVLVSESLMCKIADFGLARVIEDNEYTAREGAKFPIKWTAPEAINFGCFTIKSDVWSFGILLYEIVTYGKIPYPGRTNADVMSALSQGYRMPRMENCPDELYDIMKMCWKEKAEERPTFDYLQSVLDDFYTATEGQYQQQP
ECL signal [1]: 599,680
HTS signal (pEY): 427,178

B3: 4238984: IMAGE clone protein: Kdr, kinase insert domain protein receptor (protein, UniProt P35918 20-1345, looked up)
Vascular endothelial growth …: ASVGLPGDFLHPPKLSTQKDILTILANTTLQITCRGQRDLDWLWPNAQRDSEERVLVTECGGGDSIFCKTLTIPRVVGNDTGAYKCSYRDVDIASTVYVYVRDYRSPFIASVSDQHGIVYITENKNKTVVIPCRGSISNLNVSLCARYPEKRFVPDGNRISWDSEIGFTLPSYMISYAGMVFCEAKINDETYQSIMYIVVVVGYRIYDVILSPPHEIELSAGEKLVLNCTARTELNVGLDFTWHSPPSKSHHKKIVNRDVKPFPGTVAKMFLSTLTIESVTKSDQGEYTCVASSGRMIKRNRTFVRVHTKPFIAFGSGMKSLVEATVGSQVRIPVKYLSYPAPDIKWYRNGRPIESNYTMIVGDELTIMEVTERDAGNYTVILTNPISMEKQSHMVSLVVNVPPQIGEKALISPMDSYQYGTMQTLTCTVYANPPLHHIQWYWQLEEACSYRPGQTSPYACKEWRHVEDFQGGNKIEVTKNQYALIEGKNKTVSTLVIQAANVSALYKCEAINKAGRGERVISFHVIRGPEITVQPAAQPTEQESVSLLCTADRNTFENLTWYKLGSQATSVHMGESLTPVCKNLDALWKLNGTMFSNSTNDILIVAFQNASLQDQGDYVCSAQDKKTKKRHCLVKQLIILERMAPMITGNLENQTTTIGETIEVTCPASGNPTPHITWFKDNETLVEDSGIVLRDGNRNLTIRRVRKEDGGLYTCQACNVLGCARAETLFIIEGAQEKTNLEVIILVGTAVIAMFFWLLLVIVLRTVKRANEGELKTGYLSIVMDPDELPLDERCERLPYDASKWEFPRDRLKLGKPLGRGAFGQVIEADAFGIDKTATCKTVAVKMLKEGATHSEHRALMSELKILIHIGHHLNVVNLLGACTKPGGPLMVIVEFCKFGNLSTYLRGKRNEFVPYKSKGARFRQGKDYVGELSVDLKRRLDSITSSQSSASSGFVEEKSLSDVEEEEASEELYKDFLTLEHLICYSFQVAKGMEFLASRKCIHRDLAARNILLSEKNVVKICDFGLARDIYKDPDYVRKGDARLPLKWMAPETIFDRVYTIQSDVWSFGVLLWEIFSLGASPYPGVKIDEEFCRRLKEGTRMRAPDYTTPEMYQTMLDCWHEDPNQRPSFSELVEHLGNLLQANAQQDGKDYIVLPMSETLSMEEDSGLSLPTSPVSCMEEEEVCDPKFHYDNTAGISHYLQNSKRKSRPVSVKTFEDIPLEEPEVKVIPDDSQTDSGMVLASEELKTLEDRNKLSPSFGGMMPSKSRESVASEGSNQTSGYQSGYHSDDTDTTVYSSDEAGLLKMVDAAVHADSGTTLRSPPV
ECL signal [1]: 61,364
HTS signal (pEY): 107,459

B4: 4239139: IMAGE clone protein: Fgfr4, fibroblast growth factor receptor 4 (protein, UniProt Q03142 17-799, looked up)
Fibroblast growth factor …: LSLEASEEMEQEPCLAPILEQQEQVLTVALGQPVRLCCGRTERGRHWYKEGSRLASAGRVRGWRGRLEIASFLPEDAGRYLCLARGSMTVVHNLTLLMDDSLTSISNDEDPKTLSSSSSGHVYPQQAPYWTHPQRMEKKLHAVPAGNTVKFRCPAAGNPMPTIHWLKDGQAFHGENRIGGIRLRHQHWSLVMESVVPSDRGTYTCLVENSLGSIRYSYLLDVLERSPHRPILQAGLPANTTAVVGSDVELLCKVYSDAQPHIQWLKHVVINGSSFGADGFPYVQVLKTTDINSSEVEVLYLRNVSAEDAGEYTCLAGNSIGLSYQSAWLTVLPEEDLTWTTATPEARYTDIILYVSGSLVLLVLLLLAGVYHRQVIRGHYSRQPVTIQKLSRFPLARQFSLESRSSGKSSLSLVRGVRLSSSGPPLLTGLVNLDLPLDPLWEFPRDRLVLGKPLGEGCFGQVVRAEAFGMDPSRPDQTSTVAVKMLKDNASDKDLADLVSEMEVMKLIGRHKNIINLLGVCTQEGPLYVIVECAAKGNLREFLRARRPPGPDLSPDGPRSSEGPLSFPALVSCAYQVARGMQYLESRKCIHRDLAARNVLVTEDDVMKIADFGLARGVHHIDYYKKTSNGRLPVKWMAPEALFDRVYTHQSDVWSFEILLWEIFTLGGSPYPGIPVEELFSLLREGHRMERPPNCPSELYGLMRECWHAAPSQRPTFKQLVEALDKVLLAVSEEYLDLRLTFGPFSPSNGDASSTCSSSDSVFSHDPLPLEPSPFPFSDSQTT
ECL signal [1]: 12,588
HTS signal (pEY): 7,343
